The text below walks through data of publication PMC6684614, “Histone chaperone exploits intrinsic disorder to switch acetylation specificity” (Nature Communications, 2019).

This data set concerns the molecule itself. Nature of the data set: solution structural model from NMR PRE distance restraints and SANS (M3 data-driven docking with HADDOCK); 145 PRE-derived distance restraints and six SANS curves; building blocks PDB 2hue and MD conformers of PDB 3q66; 33 structures, pairwise backbone RMSD 2.0 A; 50 mM citrate pH 6.5, 150 mM NaCl, 298 K.

B1: Vps75 (vacuolar protein sorting-associated protein 75) homodimer (natural protein, S. cerevisiae, UniProt P53853 1-264, looked up)
chain: MMSDQENENEHAKAFLGLAKCEEEVDAIEREVELYRLNKMKPVYEKRDAYIDEIAEFWKIVLSQHVSFANYIRASDFKYIDTIDKIKVEWLALESEMYDTRDFSITFHFHGIEGDFKEQQVTKVFQIKKGKDDQEDGILTSEPVPIEWPQSYDSINPDLIKDKRSPEGKKKYRQGMKTIFGWFRWTGLKPGKEFPHGDSLASLFSEEIYPFCVKYYAEAQRDLEDEEGESGLSADGDSEDDDGSLGEVDLPLSDEEPSSKKRKV
notes: Vps75, S. cerevisiae, full length; the C-terminal acidic domain (CTAD) is 226-264; isotope-labelled (ILV methyl, 15N, 2H) in some samples; also called Vps75_(2); ScVps75; source: E. coli BL21(DE3), purified (IMAC, TEV cleavage, ion exchange, SEC); not shown: His6, N-terminal, cleaved
As for B1, the stoichiometry N (usually a count of units in the complex or per binding partner) came to 2 subunits.
